Test results as given in paper PMC6422423, “Constitutively active BRS3 is a genuinely orphan GPCR in placental mammals” (PLoS Biology, 2019).

Tested on: mouse BRS3 (mBRS3)
Assay: Luciferase reporter, constitutive activity (WT, mutants, truncated; with/without inhibitor)
Format: cell-based
Design: key to constitutive luciferase activity: fold over pcDNA-transfected blank control (blank = 1)
Settings: for luciferase, CRE / luciferase, NFAT / luciferase, SRE / luciferase, SRF: Blank = 1; for constitutive luciferase activity: no ligand; for CRE luciferase reporter activity relative to Blank (Blank = 1) / NFAT luciferase reporter activity relative to Blank (Blank = 1) / SRF luciferase reporter activity relative to Blank (Blank = 1): constitutive, full-length mBRS3 and truncated N-mBRS3
Experimental: To detect constitutive activity of BRS3, HEK293 cells were seeded in 24-well plates and cotransfected with the CRE/NFAT-RE/SRF-RE/SRE luciferase reporter plasmids (50 ng), the BRS3 from different species, or BRS3 mutants with different doses (10 ng/50 ng/150 ng); after 24 h, cells were further incubated in serum-free media for another 12 h before luciferase assay. As for peptide supplementation treatment, HEK293 cells were cotransfected with the CRE/NFAT-RE/SRF-RE/SRE luciferase reporter plasmids (50 ng) and various genes (300 ng) of the bombesin receptor family. […] Luciferase activities were determined using luciferase assay kits (Beyotime, Shanghai, China) and normalized to β-galactosidase activity. All experiments were performed at least three times in triplicates. HEK293 cells transfected with pcDNA were used as a blank control in all luciferase experiments, and the fold was calculated compared to blank control.

constitutive luciferase activity (CRE, mean)	constitutive luciferase activity (CRE, replicate 1)	constitutive luciferase activity (CRE, replicate 2)	constitutive luciferase activity (SRF, mean)	constitutive luciferase activity (SRF, replicate 1)	constitutive luciferase activity (SRF, replicate 2)	Molecule	also measured
–	–	–	–	–	–	mouse (protein, UniProt O54798 1-399, looked up) Bombesin receptor subtype-3: MSQRQSQSPNQTLISITNDTETSSSVVSNDTTHKGWTGDNSPGIEALCAIYITYAGIISVGILGNAILIKVFFKTKSMQTVPNIFITSLAFGDLLLLLTCVPVDATHYLAEGWLFGKVGCKVLSFIRLTSVGVSVFTLTILSADRYKAVVKPLERQPPNAILKTCAKAGGIWIVSMIFALPEAIFSNVYTFQDPNRNVTFESCNSYPISERLLQEIHSLLCFLVFYIIPLSIISVYYSLIARTLYKSTLNIPTEEQSHARKQIESRKRIAKTVLVLVALFALCWLPNHLLYLYHSFTYESYANHSDVPFVIIIFSRVLAFSNSCVNPFALYWLSKTFQQHFKAQLCCLKAEQPEPPLGDIPLNNLTVMGRVPATGSAHVSEISVTLFSGSSAKKGEDKV	luciferase, CRE (value 1 of 3): 19.4537; luciferase, NFAT (value 1 of 3): 19.0254; luciferase, SRE (value 1 of 3): 1.5624; luciferase, SRF (value 1 of 3): 20.3125; luciferase, CRE (value 2 of 3): 18.5759; luciferase, NFAT (value 2 of 3): 18.2536; luciferase, SRE (value 2 of 3): 1.4021; luciferase, SRF (value 2 of 3): 21.0453; luciferase, NFAT (value 3 of 3): 18.6395; luciferase, SRE (value 3 of 3): 1.4823; luciferase, SRF (value 3 of 3): 20.6789
16.9342	16.8106	17.0578	–	–	–	mBRS3-Q156A (protein, UniProt O54798 1-399, looked up, variant Q156A) Bombesin receptor subtype-3: MSQRQSQSPNQTLISITNDTETSSSVVSNDTTHKGWTGDNSPGIEALCAIYITYAGIISVGILGNAILIKVFFKTKSMQTVPNIFITSLAFGDLLLLLTCVPVDATHYLAEGWLFGKVGCKVLSFIRLTSVGVSVFTLTILSADRYKAVVKPLERAPPNAILKTCAKAGGIWIVSMIFALPEAIFSNVYTFQDPNRNVTFESCNSYPISERLLQEIHSLLCFLVFYIIPLSIISVYYSLIARTLYKSTLNIPTEEQSHARKQIESRKRIAKTVLVLVALFALCWLPNHLLYLYHSFTYESYANHSDVPFVIIIFSRVLAFSNSCVNPFALYWLSKTFQQHFKAQLCCLKAEQPEPPLGDIPLNNLTVMGRVPATGSAHVSEISVTLFSGSSAKKGEDKV	–
15.9368	15.6335	16.2401	–	–	–	mBRS3-P158A (protein, UniProt O54798 1-399, looked up, variant P158A) Bombesin receptor subtype-3: MSQRQSQSPNQTLISITNDTETSSSVVSNDTTHKGWTGDNSPGIEALCAIYITYAGIISVGILGNAILIKVFFKTKSMQTVPNIFITSLAFGDLLLLLTCVPVDATHYLAEGWLFGKVGCKVLSFIRLTSVGVSVFTLTILSADRYKAVVKPLERQPANAILKTCAKAGGIWIVSMIFALPEAIFSNVYTFQDPNRNVTFESCNSYPISERLLQEIHSLLCFLVFYIIPLSIISVYYSLIARTLYKSTLNIPTEEQSHARKQIESRKRIAKTVLVLVALFALCWLPNHLLYLYHSFTYESYANHSDVPFVIIIFSRVLAFSNSCVNPFALYWLSKTFQQHFKAQLCCLKAEQPEPPLGDIPLNNLTVMGRVPATGSAHVSEISVTLFSGSSAKKGEDKV	–
17.9436	17.8927	17.9945	20.9426	19.9659	21.9194	mBRS3 (protein, left off: V5 (from the vector pcDNA3.1-V5-His), end not stated, state not stated | His tag (from the vector pcDNA3.1-V5-His), end not stated, state not stated) MSQRQSQSPNQTLISITNDTETSSSVVSNDTTHKGWTGDNSPGIEALCAIYITYAGIISVGILGNAILIKVFFKTKSMQTVPNIFITSLAFGDLLLLLTCVPVDATHYLAEGWLFGKVGCKVLSFIRLTSVGVSVFTLTILSADRYKAVVKPLERQPPNAILKTCAKAGGIWIVSMIFALPEAIFSNVYTFQDPNRNVTFESCNSYPISERLLQEIHSLLCFLVFYIIPLSIISVYYSLIARTLYKSTLNIPTEEQSHARKQIESRKRIAKTVLVLVALFALCWLPNHLLYLYHSFTYESYANHSDVPFVIIIFSRVLAFSNSCVNPFALYWLSKTFQQHFKAQLCCLKAEQPEPPLGDIPLNNLTVMGRVPATGSAHVSEISVTLFSGSSAKKGEDKV	CRE luciferase reporter activity relative to Blank (Blank = 1) (CRE, replicate 1): 16.331; CRE luciferase reporter activity relative to Blank (Blank = 1) (CRE, replicate 2): 17.4509; CRE luciferase reporter activity relative to Blank (Blank = 1) (CRE, third line, unlabelled, equals mean of the two replicates): 16.8909; NFAT luciferase reporter activity relative to Blank (Blank = 1) (replicate 1): 16.9181; NFAT luciferase reporter activity relative to Blank (Blank = 1) (replicate 2): 16.5656; NFAT luciferase reporter activity relative to Blank (Blank = 1) (third line, unlabelled, equals mean of the two replicates): 16.7418; SRF luciferase reporter activity relative to Blank (Blank = 1) (SRF, replicate 1): 18.8375; SRF luciferase reporter activity relative to Blank (Blank = 1) (SRF, replicate 2): 17.9845; SRF luciferase reporter activity relative to Blank (Blank = 1) (SRF, third line, unlabelled, equals mean of the two replicates): 18.411
–	–	–	19.8563	19.1647	20.5479	mBRS3-R268A (protein, UniProt O54798 1-399, looked up, variant R268A) Bombesin receptor subtype-3: MSQRQSQSPNQTLISITNDTETSSSVVSNDTTHKGWTGDNSPGIEALCAIYITYAGIISVGILGNAILIKVFFKTKSMQTVPNIFITSLAFGDLLLLLTCVPVDATHYLAEGWLFGKVGCKVLSFIRLTSVGVSVFTLTILSADRYKAVVKPLERQPPNAILKTCAKAGGIWIVSMIFALPEAIFSNVYTFQDPNRNVTFESCNSYPISERLLQEIHSLLCFLVFYIIPLSIISVYYSLIARTLYKSTLNIPTEEQSHARKQIESRKAIAKTVLVLVALFALCWLPNHLLYLYHSFTYESYANHSDVPFVIIIFSRVLAFSNSCVNPFALYWLSKTFQQHFKAQLCCLKAEQPEPPLGDIPLNNLTVMGRVPATGSAHVSEISVTLFSGSSAKKGEDKV	–
–	–	–	15.0321	15.1183	14.946	mBRS3-F337A (protein, UniProt O54798 1-399, looked up, variant F337A) Bombesin receptor subtype-3: MSQRQSQSPNQTLISITNDTETSSSVVSNDTTHKGWTGDNSPGIEALCAIYITYAGIISVGILGNAILIKVFFKTKSMQTVPNIFITSLAFGDLLLLLTCVPVDATHYLAEGWLFGKVGCKVLSFIRLTSVGVSVFTLTILSADRYKAVVKPLERQPPNAILKTCAKAGGIWIVSMIFALPEAIFSNVYTFQDPNRNVTFESCNSYPISERLLQEIHSLLCFLVFYIIPLSIISVYYSLIARTLYKSTLNIPTEEQSHARKQIESRKRIAKTVLVLVALFALCWLPNHLLYLYHSFTYESYANHSDVPFVIIIFSRVLAFSNSCVNPFALYWLSKTAQQHFKAQLCCLKAEQPEPPLGDIPLNNLTVMGRVPATGSAHVSEISVTLFSGSSAKKGEDKV	–
17.8056	17.9268	17.6843	–	–	–	mBRS3-R370A (protein, UniProt O54798 1-399, looked up, variant R370A) Bombesin receptor subtype-3: MSQRQSQSPNQTLISITNDTETSSSVVSNDTTHKGWTGDNSPGIEALCAIYITYAGIISVGILGNAILIKVFFKTKSMQTVPNIFITSLAFGDLLLLLTCVPVDATHYLAEGWLFGKVGCKVLSFIRLTSVGVSVFTLTILSADRYKAVVKPLERQPPNAILKTCAKAGGIWIVSMIFALPEAIFSNVYTFQDPNRNVTFESCNSYPISERLLQEIHSLLCFLVFYIIPLSIISVYYSLIARTLYKSTLNIPTEEQSHARKQIESRKRIAKTVLVLVALFALCWLPNHLLYLYHSFTYESYANHSDVPFVIIIFSRVLAFSNSCVNPFALYWLSKTFQQHFKAQLCCLKAEQPEPPLGDIPLNNLTVMGAVPATGSAHVSEISVTLFSGSSAKKGEDKV	–
–	–	–	14.9649	15.7177	14.2121	mBRS3-A270I (protein, UniProt O54798 1-399, looked up, variant A270I) Bombesin receptor subtype-3: MSQRQSQSPNQTLISITNDTETSSSVVSNDTTHKGWTGDNSPGIEALCAIYITYAGIISVGILGNAILIKVFFKTKSMQTVPNIFITSLAFGDLLLLLTCVPVDATHYLAEGWLFGKVGCKVLSFIRLTSVGVSVFTLTILSADRYKAVVKPLERQPPNAILKTCAKAGGIWIVSMIFALPEAIFSNVYTFQDPNRNVTFESCNSYPISERLLQEIHSLLCFLVFYIIPLSIISVYYSLIARTLYKSTLNIPTEEQSHARKQIESRKRIIKTVLVLVALFALCWLPNHLLYLYHSFTYESYANHSDVPFVIIIFSRVLAFSNSCVNPFALYWLSKTFQQHFKAQLCCLKAEQPEPPLGDIPLNNLTVMGRVPATGSAHVSEISVTLFSGSSAKKGEDKV	–
–	–	–	15.5479	16.2185	14.8773	mBRS3-Q339A (protein, UniProt O54798 1-399, looked up, variant Q339A) Bombesin receptor subtype-3: MSQRQSQSPNQTLISITNDTETSSSVVSNDTTHKGWTGDNSPGIEALCAIYITYAGIISVGILGNAILIKVFFKTKSMQTVPNIFITSLAFGDLLLLLTCVPVDATHYLAEGWLFGKVGCKVLSFIRLTSVGVSVFTLTILSADRYKAVVKPLERQPPNAILKTCAKAGGIWIVSMIFALPEAIFSNVYTFQDPNRNVTFESCNSYPISERLLQEIHSLLCFLVFYIIPLSIISVYYSLIARTLYKSTLNIPTEEQSHARKQIESRKRIAKTVLVLVALFALCWLPNHLLYLYHSFTYESYANHSDVPFVIIIFSRVLAFSNSCVNPFALYWLSKTFQAHFKAQLCCLKAEQPEPPLGDIPLNNLTVMGRVPATGSAHVSEISVTLFSGSSAKKGEDKV	–
